Assay results: patent US20190382493A1 (CYTOMX THERAPEUTICS, published 2019)

Key:
[1] = target: T1, human PDL1-Fc (R & D Systems) (human, UniProt Q9NZQ7 19-239); test: ELISA, PDL1-Fc adsorbed, anti-human IgG (Fab specific)-HRP
T1 construct: Bought reagent; not shown: Fc part of the bought fusion protein; not described
Method: (§1) Bound antibody was visualized with an anti-human IgG-HRP conjugate, Fab specific, (Sigma, St Louis, Mo.; Cat # A0293-1ML) and developed with the chromogenic substrate TMB. […] Table 5 provides the SEQ ID NOs for the nucleic acid sequences and amino acids sequences of the respective variable heavy chains.
(§2) Bound antibody was visualized with an anti-human IgG-HRP conjugate, Fab specific, (Sigma, St Louis, Mo.; Cat # A0293-1ML) and developed with the chromogenic substrate TMB.

[2] = target: T2, mouse PDL1-Fc (R & D Systems) (mouse, UniProt Q9EP73 19-238); test: as above
T2 construct: Bought reagent; not shown: Fc part of the bought fusion protein; not described
T2 sequence (Q9EP73 19-238 limits assumed): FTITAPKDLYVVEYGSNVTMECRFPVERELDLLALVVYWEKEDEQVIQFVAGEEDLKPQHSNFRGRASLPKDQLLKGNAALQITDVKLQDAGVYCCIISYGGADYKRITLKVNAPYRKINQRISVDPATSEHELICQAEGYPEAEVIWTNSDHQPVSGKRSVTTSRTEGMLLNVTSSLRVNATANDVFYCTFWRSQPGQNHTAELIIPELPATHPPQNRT
Method: as §1, §2

[3] = target: T3, human B7-1-Fc (R&D Systems) (human, UniProt P33681 35-242); test: ELISA, antigen adsorbed
T3 construct: not shown: Fc part of the bought fusion protein; not described
T3 sequence (looked up): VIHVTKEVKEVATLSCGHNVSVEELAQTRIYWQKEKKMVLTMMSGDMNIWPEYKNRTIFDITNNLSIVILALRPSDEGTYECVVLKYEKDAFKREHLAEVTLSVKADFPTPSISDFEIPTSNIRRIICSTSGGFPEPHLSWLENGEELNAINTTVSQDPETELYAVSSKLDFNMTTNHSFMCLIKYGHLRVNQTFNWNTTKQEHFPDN
Method: as §2

human B7H3 (R&D Systems) = target: T4, human B7H3 (R&D Systems) (human, UniProt Q5ZPR3-2 29-245, limits assumed); test: ELISA, antigen adsorbed
T4 sequence (looked up): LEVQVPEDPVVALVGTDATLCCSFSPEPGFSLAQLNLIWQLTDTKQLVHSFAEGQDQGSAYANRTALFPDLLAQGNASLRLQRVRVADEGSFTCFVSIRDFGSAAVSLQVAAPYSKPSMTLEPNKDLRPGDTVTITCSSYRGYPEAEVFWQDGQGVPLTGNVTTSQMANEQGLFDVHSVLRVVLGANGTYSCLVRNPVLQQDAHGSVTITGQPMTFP
Method: as §2

[4] = target: T5, human CD28-Fc (R&D Systems) (human, UniProt P10747 19-152); test: ELISA, antigen adsorbed
T5 construct: not shown: Fc part of the bought fusion protein; not described
Method: as §2

[5] = target: T1, human PDL1-Fc (R & D Systems); test: Fab-phage ELISA, antigen adsorbed
Excerpt: (§3) Forty seven (47) individual isolates were chosen from the final pool. […] Briefly, the antigens were adsorbed to the wells of a 96-well ELISA plate, each ligand on a separate plate. Phage were applied to correlative wells on each plate and allowed to bind. Bound phage were visualized with an anti-M13-HRP conjugate and developed with the chromogenic substrate TMB. Based on the results of the ELISA and DNA sequence, 6 unique clones with matured heavy variable CDR3 domains and 10 heavy variable CDR2 domains were chosen for further study. […] Table 4 lists the heavy variable domains encoded by the clones and SEQ ID NOs for the nucleic acid sequences and amino acid sequences of their respective heavy chains.

[6] = target: T3, human B7-1-Fc (R&D Systems); test: Fab-phage ELISA, antigen adsorbed
Excerpt: as §3

[7] = target: T1, human PDL1-Fc (R & D Systems); test: ELISA, PDL1 adsorbed
Method: as §2

[8] = target: T2, mouse PDL1-Fc (R & D Systems); test: ELISA, PDL1 adsorbed
Method: as §2

rat PDL1 = rat PDL1 (rat, UniProt D4AE25 19-239); test: ELISA, PDL1 adsorbed
Sequence of rat PDL1 (D4AE25 entry or part of it limits assumed, form in doubt): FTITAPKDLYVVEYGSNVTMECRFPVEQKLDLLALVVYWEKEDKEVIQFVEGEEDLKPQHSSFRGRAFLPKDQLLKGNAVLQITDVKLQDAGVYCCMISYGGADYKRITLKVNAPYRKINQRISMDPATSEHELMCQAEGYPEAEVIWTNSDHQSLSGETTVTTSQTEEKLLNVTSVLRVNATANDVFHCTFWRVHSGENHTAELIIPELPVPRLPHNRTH
Method: as §2

[9] = target: T6, cynomolgus monkey (cyno) PDL1-Fc (Sino biological) (cynomolgus monkey, UniProt G7PSE7 19-239); test: ELISA, PDL1 adsorbed
T6 construct: Bought reagent; not shown: Fc part of the bought fusion protein; not described
T6 sequence (G7PSE7 entry or part of it): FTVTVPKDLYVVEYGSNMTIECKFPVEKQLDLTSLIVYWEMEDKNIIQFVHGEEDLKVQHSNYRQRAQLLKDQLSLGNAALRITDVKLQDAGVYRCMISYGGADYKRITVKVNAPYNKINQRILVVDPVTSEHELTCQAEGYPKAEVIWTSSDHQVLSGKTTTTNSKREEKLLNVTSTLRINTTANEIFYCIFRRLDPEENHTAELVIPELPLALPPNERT
Method: as §2

[10] = target: T1, human PDL1-Fc (R & D Systems); test: ELISA saturation binding (figure legend)
Method: as §2

[11] = target: T1, human PDL1-Fc (R & D Systems); test: ELISA saturation binding, PDL1-Fc adsorbed
Method: as §2

[12] = target: T2, mouse PDL1-Fc (R & D Systems); test: ELISA saturation binding, PDL1-Fc adsorbed
Method: as §2

human PDL1 (R&D Systems) = target: T7, human PDL1 (R&D Systems) (human, UniProt Q9NZQ7 19-239); test: phage ELISA, antigen adsorbed, anti-M13-HRP
T7 construct: also called hPDL1; recombinant human PDL1 protein
T7 sequence (Q9NZQ7 19-239 limits assumed): as the sequence (G7PSE7 entry or part of it) above, with T33A, S34A, N62S, Q68R, R82Q, L173F, A185T, I192T, L215H counted along it
Excerpt: (§4) Phage were applied to the plate and allowed to bind. Bound phage were visualized with an anti-M13-HRP conjugate (GE Healthcare, Piscataway, N.Y.) and developed with the chromogenic substrate tetramethyl benzidine (TMB) (Thermo Scientific, Rockford, Ill.).

mouse PDL1 (R&D Systems) [13] = target: T8, mouse PDL1 (R&D Systems) (mouse, UniProt Q9EP73 19-238); test: phage ELISA, antigen adsorbed, anti-M13-HRP
T8 construct: also called mPDL1; murine PDL1
T8 sequence (Q9EP73 19-238 limits assumed): as the sequence (Q9EP73 19-238 limits assumed) above
Excerpt: as §4

mouse PDL1 (R&D Systems) [14] = target: T8, mouse PDL1 (R&D Systems); test: phage ELISA on adsorbed mouse PDL1, PD1-Fc as competitor
Excerpt: Bound phage were visualized with an anti-M13-HRP conjugate (GE Healthcare, Piscataway, N.Y.) and developed with the chromogenic substrate tetramethyl benzidine (TMB) (Thermo Scientific, Rockford, Ill.).

T1 sequence (Q9NZQ7 19-239 limits assumed): as the sequence (G7PSE7 entry or part of it) above, with T33A, S34A, N62S, Q68R, R82Q, L173F, A185T, I192T, L215H counted along it

B1: anti-PDL1 antibody C5H9 (antibody, V domains shown)
VH: EVQLLESGGGLVQPGGSLRLSCAASGFTFSSYAMSWVRQAPGKGLEWVSSIWRNGIVTVYADSVKGRFTISRDNSKNTLYLQMNSLRAEDTAVYYCAKWSAAFDYWGQGTLVTVSS
VL: DIQMTQSPSSLSASVGDRVTITCRASQSISSYLNWYQQKPGKAPKLLIYYASTLQSGVPSRFSGSGSGTDFTLTISSLQPEDFATYYCQQDNGYPSTFGQGTKVEIKR
notes: Fully human IgG; also called PDL1 C5H9
binding result [1]: binds | binding result [2]: binds | binding result [3]: no binding | binding result (human B7H3 (R&D Systems)): no binding | binding result [4]: no binding

B2: anti-PDL1 antibody C5B10 (antibody, V domains shown)
VH: EVQLLESGGGLVQPGGSLRLSCAASGFTFSSYAMSWVRQAPGKGLEWVSSIWRNGIVTVYADSVKGRFTISRDNSKNTLYLQMNSLRAEDTAVYYCAKWSAGYDYWGQGTLVTVSS
VL: DIQMTQSPSSLSASVGDRVTITCRASQSISSYLNWYQQKPGKAPKLLIYYASTLQSGVPSRFSGSGSGTDFTLTISSLQPEDFATYYCQQDNGYPSTFGQGTKVEIKR
notes: Fully human IgG; also called PDL1 C5B10
binding result [1]: binds | binding result [3]: no binding | binding result [4]: no binding

B3: anti-PDL1 antibody G12H9 (antibody, V domains shown)
VH: EVQLLESGGGLVQPGGSLRLSCAASGFTFSSYAMSWVRQAPGKGLEWVSSIWYQGLVTVYADSVKGRFTISRDNSKNTLYLQMNSLRAEDTAVYYCAKWSAAFDYWGQGTLVTVSS
VL: DIQMTQSPSSLSASVGDRVTITCRASQSISSYLNWYQQKPGKAPKLLIYYASTLQSGVPSRFSGSGSGTDFTLTISSLQPEDFATYYCQQDNGYPSTFGQGTKVEIKR
notes: Fully human IgG; also called PDL1 G12H9
binding result [1]: binds

B4: anti-PDL1 antibody C5E10 (antibody, V domains shown)
VH: EVQLLESGGGLVQPGGSLRLSCAASGFTFSSYAMSWVRQAPGKGLEWVSSIWRNGIVTVYADSVKGRFTISRDNSKNTLYLQMNSLRAEDTAVYYCAKWSKGFDYWGQGTLVTVSS
VL: DIQMTQSPSSLSASVGDRVTITCRASQSISSYLNWYQQKPGKAPKLLIYYASTLQSGVPSRFSGSGSGTDFTLTISSLQPEDFATYYCQQDNGYPSTFGQGTKVEIKR
notes: Fully human IgG
binding result [1]: binds | binding result [3]: no binding | binding result [4]: no binding

B5: anti-PDL1 antibody G12B10 (antibody, V domains shown)
VH: EVQLLESGGGLVQPGGSLRLSCAASGFTFSSYAMSWVRQAPGKGLEWVSSIWYQGLVTVYADSVKGRFTISRDNSKNTLYLQMNSLRAEDTAVYYCAKWSAGYDYWGQGTLVTVSS
VL: DIQMTQSPSSLSASVGDRVTITCRASQSISSYLNWYQQKPGKAPKLLIYYASTLQSGVPSRFSGSGSGTDFTLTISSLQPEDFATYYCQQDNGYPSTFGQGTKVEIKR
notes: Fully human IgG; also called PDL1 G12B10
binding result [1]: binds

B6: PDL1 h9 Fab-phage (Fab, V domains shown)
VH: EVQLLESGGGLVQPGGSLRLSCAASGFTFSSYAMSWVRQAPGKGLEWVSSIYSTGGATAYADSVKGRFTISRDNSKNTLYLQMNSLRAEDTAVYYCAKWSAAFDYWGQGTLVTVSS
VL: DIQMTQSPSSLSASVGDRVTITCRASQSISSYLNWYQQKPGKAPKLLIYYASTLQSGVPSRFSGSGSGTDFTLTISSLQPEDFATYYCQQDNGYPSTFGQGTKVEIKR
notes: also called CDR3 clone H9
binding result [5]: binds | binding result [6]: no binding

B7: anti-PDL1 antibody C5H9v2 (antibody, V domains shown)
VH: EVQLLESGGGLVQPGGSLRLSCAASGFTFSSYAMSWVRQAPGKGLEWVSSIWRNGIVTVYADSVKGRFTISRDNSKNTLYLQMNSLRAEDTAVYYCAKWSAAFDYWGQGTLVTVSS
VL: DIQMTQSPSSLSASVGDRVTITCRASQSISSYLNWYQQKPGKAPKLLIYAASSLQSGVPSRFSGSGSGTDFTLTISSLQPEDFATYYCQQDNGYPSTFGGGTKVEIKR
notes: IgG; also called anti-PDL1 parental antibody C5H9v2
EC50 [7]: 250 pM | EC50 [8]: 300 pM | EC50 (rat PDL1): 310 pM | EC50 [9]: 280 pM

B8: anti-PDL1 antibody G12E10 (antibody, V domains shown)
VH: EVQLLESGGGLVQPGGSLRLSCAASGFTFSSYAMSWVRQAPGKGLEWVSSIWYQGLVTVYADSVKGRFTISRDNSKNTLYLQMNSLRAEDTAVYYCAKWSKGFDYWGQGTLVTVSS
VL: DIQMTQSPSSLSASVGDRVTITCRASQSISSYLNWYQQKPGKAPKLLIYYASTLQSGVPSRFSGSGSGTDFTLTISSLQPEDFATYYCQQDNGYPSTFGQGTKVEIKR
notes: Fully human IgG; also called PDL1 G12E10
binding result [1]: binds

B9: fully human anti-PDL1 c60 IgG (antibody, V domains shown)
VH: EVQLLESGGGLVQPGGSLRLSCAASGFTFSSYAMSWVRQAPGKGLEWVSSIYSTGGATAYADSVKGRFTISRDNSKNTLYLQMNSLRAEDTAVYYCAKSSAGFDYWGQGTLVTVSS
VL: DIQMTQSPSSLSASVGDRVTITCRASQSISSYLNWYQQKPGKAPKLLIYYASTLQSGVPSRFSGSGSGTDFTLTISSLQPEDFATYYCQQDNGYPSTFGQGTKVEIKR
notes: Fully human IgG with the variable domains of PDL1 c60; also called anti-PDL1 clone 60:IgG
Kd [10]: ~1000 pM | Kd [11]: 1000 pM | Kd [12]: 30000 pM

B10: PDL1 c60 ScFv-phage (scFv)
scFv: EVQLLESGGGLVQPGGSLRLSCAASGFTFSSYAMSWVRQAPGKGLEWVSSIYSTGGATAYADSVKGRFTISRDNSKNTLYLQMNSLRAEDTAVYYCAKSSAGFDYWGQGTLVTVSSGGGGSGGGGSGGGGSTDIQMTQSPSSLSASVGDRVTITCRASQSISSYLNWYQQKPGKAPKLLIYYASTLQSGVPSRFSGSGSGTDFTLTISSLQPEDFATYYCQQDNGYPSTFGQGTKVEIKR
notes: also called clone 60
binding result (human PDL1 (R&D Systems)): binds | binding result (mouse PDL1 (R&D Systems) [13]): binds

B11: mouse PD1-Fc (R&D Systems) (Fc fusion, UniProt Q02242 25-167, looked up)
chain: LEVPNGPWRSLTFYPAWLTVSEGANATFTCSLSNWSEDLMLNWNRLSPSNQTEKQAAFCNGLSQPVQDARFQIIQLPNRHDFHMNILDTRRNDSGIYLCGAISLHPKAKIEESPGAELVVTERILETSTRYPSPSPKPEGRFQ
notes: Bought reagent; also called mPD1; not shown: Fc part of the bought fusion protein; not described
binding result (mouse PDL1 (R&D Systems) [14]): binds
